Assays:
[1] = target: Lyb-2.1 antigen expressed at the surface of B lymphocytes (mouse) (UniProt P21855); assay: cell-based or functional assay
[2] = target: MHC class II molecule I-E^d expressed at the surface of A20 cells and mouse splenocytes (mouse) (UniProt P01904); assay: cell-based or functional assay
[3] = target: MHC class II molecule I-E^d expressed at the surface of A20 cells and mouse splenocytes (mouse) (UniProt P01904); assay: flow cytometry on mouse splenocytes, 10 nM complex, B cells gated with anti-CD19-PE

UniProt P01904, sequence (P01904 26-255, chain 1 of 2): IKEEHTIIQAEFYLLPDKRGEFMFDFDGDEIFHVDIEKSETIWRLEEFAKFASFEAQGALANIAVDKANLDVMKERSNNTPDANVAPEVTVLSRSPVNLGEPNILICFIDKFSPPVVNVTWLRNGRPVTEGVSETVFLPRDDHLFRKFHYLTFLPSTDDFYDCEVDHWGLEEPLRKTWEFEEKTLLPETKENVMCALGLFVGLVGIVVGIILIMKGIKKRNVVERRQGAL
UniProt P01904, sequence (P01915 32-264, chain 2 of 2, further chain): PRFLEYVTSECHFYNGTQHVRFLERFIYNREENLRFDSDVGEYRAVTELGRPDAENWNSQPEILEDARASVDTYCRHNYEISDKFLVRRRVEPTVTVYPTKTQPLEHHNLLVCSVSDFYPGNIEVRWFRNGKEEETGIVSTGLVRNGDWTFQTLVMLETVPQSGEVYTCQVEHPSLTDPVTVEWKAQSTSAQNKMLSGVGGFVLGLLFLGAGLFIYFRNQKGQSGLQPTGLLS
UniProt P21855, sequence (P21855 whole entry): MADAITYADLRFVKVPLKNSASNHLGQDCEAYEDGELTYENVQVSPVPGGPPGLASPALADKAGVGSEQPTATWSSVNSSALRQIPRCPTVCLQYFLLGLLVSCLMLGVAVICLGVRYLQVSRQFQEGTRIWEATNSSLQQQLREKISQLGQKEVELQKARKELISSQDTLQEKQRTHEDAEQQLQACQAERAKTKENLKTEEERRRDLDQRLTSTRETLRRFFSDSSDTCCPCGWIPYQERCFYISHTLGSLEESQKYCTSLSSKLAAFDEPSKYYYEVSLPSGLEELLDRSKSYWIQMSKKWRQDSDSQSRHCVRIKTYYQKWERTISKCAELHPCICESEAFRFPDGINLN

Row | Substance | amount of ZZDTR-BD needed to reach the same level of T4B6 stimulation (IL-2 secretion), A20 cells as APCs, against free ZZDTR-BD [1] | amount of ZZDTR-BD needed to reach the same level of T4B6 stimulation (IL-2 secretion), A20 cells as APCs, against free ZZDTR-BD [2] | amount of ZZDTR-BD needed to reach the same level of T4B6 stimulation (IL-2 secretion), splenocytes as APCs, against free ZZDTR-BD [2] | percent of B lymphocytes labeled [3]
1 | 10-1.D.2/ZZDTR-BD complex (mouse monoclonal IgG2a 10-1.D.2, anti-Lyb-2.1, complexed with ZZDTR-BD) | 3.8 times lower | – | – | –
2 | 14-4-4S/ZZDTR-BD complex (mouse monoclonal IgG2a 14-4-4S, anti-MHC class II I-E^d, complexed with ZZDTR-BD) | – | 13.4 times lower | 5.2 times lower | 68.5%
